Results from patent US7335638B2, “Prevention and treatment of mycoplasma-associated diseases” (priority 2000, dated 2008).

System: adenocarcinoma of Walker
Test: Treatment of experimental adenocarcinoma in rats (Walker tumor)
Format: in vivo, rat
Conditions: both died after 12 days of treatment; prolactine added to TS, PDTC and plant extract
Excerpt: Malignant neoplasia was induced experimentally by inoculation of 500,000 cells of adenocarcinoma of Walker in the right flank of several rats in order to verify if the use of simultaneous anti-proliferative and anti-oxidative drugs may decrease the growing of the neoplasia and the level of metastases. Usually the animals receiving such inoculation of adecarcinoma cells survived for 10-12 days and presented metastasis to many ganglia, liver and lung. Nine of these animals were inoculated after 7 days of tumor cells with 0.5 ml of trans-sialidase TS (supernatant of culture of T. cruzi) as described in the U.S. patent application Ser. No. 10/086,913, filed Mar. 1, 2002 and with 0.75 mg of PDTC, into the peritoneum every day. The particles containing DNA or RNA prepared from plant extracts (garlic, Ginkgo biloba and tomato) as described above was also administered. All animals received 0.5 ml of garlic extract by subcutaneous route (Table 1 below). The tumors were similar in size for all animals at the beginning of the treatment, i.e. 2.8×2.7 cm.
Rats 1-4 were followed until death. Rats 3 and 4 received 0.5 ml of Ginkgo biloba's extract, every day. The tumors increased slower in all 4 animals receiving plant extracts than the controls. […]
Prolactin and/or growth hormone administration to diminish these effects was also evaluated. […]

B1: prolactine: ovine prolactine from Sigma, neuroendocrine hormone (protein, UniProt P01240 31-229, looked up)
Prolactin: TPVCPNGPGNCQVSLRDLFDRAVMVSHYIHNLSSEMFNEFDKRYAQGKGFITMALNSCHTSSLPTPEDKEQAQQTHHEVLMSLILGLLRSWNDPLYHLVTEVRGMKGVPDAILSRAIEIEEENKRLLEGMEMIFGQVIPGAKETEPYPVWSGLPSLQTKDEDARHSAFYNLLHCLRRDSSKIDTYLKLLNCRIIYNNNC
  tumor at necropsy, Rat 4 compared with Rat 1: smaller size of the tumor with less microscopic necrosis
